Several values for one entry are separate records, joined by “and”; a condition that tells them apart may be missing. Identical values can stand only once.
Assays:
Type in all cases: binding
[1] = Probe fluorescence ratio response to linolenic acid relative to ADIFAB2; settings: response relative to ADIFAB2
In short: (§1)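 Fluorescently labeled rat intestinal FABP variants were read at two emission wavelengths, near the unbound maximum (about 420 to 480 nm) and the FFA-bound maximum (about 495 to 580 nm). R = Fλ1/Fλ2 after subtracting probe-free intensity; ΔR = R+agent − R0, normalized to ADIFAB2 (rI-FABP-L72A).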

[2] = Probe fluorescence ratio response to arachidonic acid relative to ADIFAB2; settings: arachidonic acid; response relative to ADIFAB2
In short: as §1

[3] = Probe fluorescence ratio response to palmitic acid relative to ADIFAB2; settings: response relative to ADIFAB2
In short: as §1

[4] = Probe fluorescence ratio response to linoleic acid relative to ADIFAB2; settings: response relative to ADIFAB2
In short: as §1

[5] = Probe fluorescence ratio response to oleic acid relative to ADIFAB2; settings: response relative to ADIFAB2
In short: as §1

| Molecule | DR/DR LNA [1] | DR/DR AA [2] | DR/DR PA [3] | DR/DR LA [4] | DR/DR OA [5] |
| --- | --- | --- | --- | --- | --- |
| 126F, 72A (protein, listed as Rattus norvegicus, PEPTIDE (1)...(131) wild-type rat intestinal fatty acid binding protein) AFDGTWKVDRNENYEKFMEKMGINVVKRKLGAHDNLKLTITQEGNKFTVKESSNFRNIDVVFELGVDFAYSAADGTELTGTWTMEGNKLVGKFKRVDNGKELIAVREISGNELIQTYTYEGVEAKFIFKKE | 0.53 | 0.52 | 0.34 | 0.51 | 0.43 |
| 102I, 72A (protein, listed as Rattus norvegicus, PEPTIDE (1)...(131) wild-type rat intestinal fatty acid binding protein) AFDGTWKVDRNENYEKFMEKMGINVVKRKLGAHDNLKLTITQEGNKFTVKESSNFRNIDVVFELGVDFAYSAADGTELTGTWTMEGNKLVGKFKRVDNGKEIIAVREISGNELIQTYTYEGVEAKRIFKKE | 1.76 and 1.763 | 1.46 and 1.461 | 1.17 and 1.169 | 1.90 and 1.902 | 1.93 and 1.929 |
| 126M, 72A (protein, listed as Rattus norvegicus, PEPTIDE (1)...(131) wild-type rat intestinal fatty acid binding protein) AFDGTWKVDRNENYEKFMEKMGINVVKRKLGAHDNLKLTITQEGNKFTVKESSNFRNIDVVFELGVDFAYSAADGTELTGTWTMEGNKLVGKFKRVDNGKELIAVREISGNELIQTYTYEGVEAKMIFKKE | 0.28 | 0.32 | 0.29 | 0.31 | 0.24 |
| 14E, 72A (protein, listed as Rattus norvegicus, PEPTIDE (1)...(131) wild-type rat intestinal fatty acid binding protein) AFDGTWKVDRNENEEKFMEKMGINVVKRKLGAHDNLKLTITQEGNKFTVKESSNFRNIDVVFELGVDFAYSAADGTELTGTWTMEGNKLVGKFKRVDNGKELIAVREISGNELIQTYTYEGVEAKRIFKKE | 0.61 | 0.51 | 0.44 | 0.56 | 0.41 |
| 126H, 72A (protein, listed as Rattus norvegicus, PEPTIDE (1)...(131) wild-type rat intestinal fatty acid binding protein) AFDGTWKVDRNENYEKFMEKMGINVVKRKLGAHDNLKLTITQEGNKFTVKESSNFRNIDVVFELGVDFAYSAADGTELTGTWTMEGNKLVGKFKRVDNGKELIAVREISGNELIQTYTYEGVEAKHIFKKE | 0.46 | 0.20 | 0.32 | 0.46 | 0.43 |
| 14L, 72A (protein, listed as Rattus norvegicus, PEPTIDE (1)...(131) wild-type rat intestinal fatty acid binding protein) AFDGTWKVDRNENLEKFMEKMGINVVKRKLGAHDNLKLTITQEGNKFTVKESSNFRNIDVVFELGVDFAYSAADGTELTGTWTMEGNKLVGKFKRVDNGKELIAVREISGNELIQTYTYEGVEAKRIFKKE | 0.93 | 0.89 | 3.07 | 0.87 | 0.44 |
| 126V, 72A (protein, listed as Rattus norvegicus, PEPTIDE (1)...(131) wild-type rat intestinal fatty acid binding protein) AFDGTWKVDRNENYEKFMEKMGINVVKRKLGAHDNLKLTITQEGNKFTVKESSNFRNIDVVFELGVDFAYSAADGTELTGTWTMEGNKLVGKFKRVDNGKELIAVREISGNELIQTYTYEGVEAKVIFKKE | 0.42 | 0.42 | 0.34 | 0.45 | 0.33 |
| 14D, 72A (protein, listed as Rattus norvegicus, PEPTIDE (1)...(131) wild-type rat intestinal fatty acid binding protein) AFDGTWKVDRNENDEKFMEKMGINVVKRKLGAHDNLKLTITQEGNKFTVKESSNFRNIDVVFELGVDFAYSAADGTELTGTWTMEGNKLVGKFKRVDNGKELIAVREISGNELIQTYTYEGVEAKRIFKKE | 0.51 | 0.46 | 0.28 | 0.53 | 0.34 |
| 14G, 72A (protein, listed as Rattus norvegicus, PEPTIDE (1)...(131) wild-type rat intestinal fatty acid binding protein) AFDGTWKVDRNENGEKFMEKMGINVVKRKLGAHDNLKLTITQEGNKFTVKESSNFRNIDVVFELGVDFAYSAADGTELTGTWTMEGNKLVGKFKRVDNGKELIAVREISGNELIQTYTYEGVEAKRIFKKE | 0.46 | 0.43 | 0.19 | 0.42 | 0.24 |
| 14A, 72A (protein, listed as Rattus norvegicus, PEPTIDE (1)...(131) wild-type rat intestinal fatty acid binding protein) AFDGTWKVDRNENAEKFMEKMGINVVKRKLGAHDNLKLTITQEGNKFTVKESSNFRNIDVVFELGVDFAYSAADGTELTGTWTMEGNKLVGKFKRVDNGKELIAVREISGNELIQTYTYEGVEAKRIFKKE | 0.56 | 0.53 | 0.24 | 0.56 | 0.36 |
| 14I, 72A (protein, listed as Rattus norvegicus, PEPTIDE (1)...(131) wild-type rat intestinal fatty acid binding protein) AFDGTWKVDRNENIEKFMEKMGINVVKRKLGAHDNLKLTITQEGNKFTVKESSNFRNIDVVFELGVDFAYSAADGTELTGTWTMEGNKLVGKFKRVDNGKELIAVREISGNELIQTYTYEGVEAKRIFKKE | 0.90 and 0.899 | 0.57 and 0.572 | 0.59 and 0.586 | 0.79 and 0.792 | 0.57 and 0.572 |
| 126I, 72A (protein, listed as Rattus norvegicus, PEPTIDE (1)...(131) wild-type rat intestinal fatty acid binding protein) AFDGTWKVDRNENYEKFMEKMGINVVKRKLGAHDNLKLTITQEGNKFTVKESSNFRNIDVVFELGVDFAYSAADGTELTGTWTMEGNKLVGKFKRVDNGKELIAVREISGNELIQTYTYEGVEAKIIFKKE | 0.43 | 0.45 | 0.38 | 0.43 | 0.34 |
| 126L, 72A (protein, listed as Rattus norvegicus, PEPTIDE (1)...(131) wild-type rat intestinal fatty acid binding protein) AFDGTWKVDRNENYEKFMEKMGINVVKRKLGAHDNLKLTITQEGNKFTVKESSNFRNIDVVFELGVDFAYSAADGTELTGTWTMEGNKLVGKFKRVDNGKELIAVREISGNELIQTYTYEGVEAKLIFKKE | 0.66 | 0.66 | 0.38 | 0.64 | 0.55 |
| 14F, 72A (protein, listed as Rattus norvegicus, PEPTIDE (1)...(131) wild-type rat intestinal fatty acid binding protein) AFDGTWKVDRNENFEKFMEKMGINVVKRKLGAHDNLKLTITQEGNKFTVKESSNFRNIDVVFELGVDFAYSAADGTELTGTWTMEGNKLVGKFKRVDNGKELIAVREISGNELIQTYTYEGVEAKRIFKKE | 0.88 | 0.83 | 0.60 | 0.88 | 0.72 |
| 14M, 72A (protein, listed as Rattus norvegicus, PEPTIDE (1)...(131) wild-type rat intestinal fatty acid binding protein) AFDGTWKVDRNENMEKFMEKMGINVVKRKLGAHDNLKLTITQEGNKFTVKESSNFRNIDVVFELGVDFAYSAADGTELTGTWTMEGNKLVGKFKRVDNGKELIAVREISGNELIQTYTYEGVEAKRIFKKE | 0.68 and 0.684 | 0.62 and 0.619 | 0.45 and 0.452 | 0.68 and 0.685 | 0.41 and 0.412 |
| 14H, 72A (protein, listed as Rattus norvegicus, PEPTIDE (1)...(131) wild-type rat intestinal fatty acid binding protein) AFDGTWKVDRNENHEKFMEKMGINVVKRKLGAHDNLKLTITQEGNKFTVKESSNFRNIDVVFELGVDFAYSAADGTELTGTWTMEGNKLVGKFKRVDNGKELIAVREISGNELIQTYTYEGVEAKRIFKKE | 0.42 | 0.37 | 0.17 | 0.45 | 0.25 |
| 14K, 72A (protein, listed as Rattus norvegicus, PEPTIDE (1)...(131) wild-type rat intestinal fatty acid binding protein) AFDGTWKVDRNENKEKFMEKMGINVVKRKLGAHDNLKLTITQEGNKFTVKESSNFRNIDVVFELGVDFAYSAADGTELTGTWTMEGNKLVGKFKRVDNGKELIAVREISGNELIQTYTYEGVEAKRIFKKE | 0.92 | 1.08 | 0.47 | 1.06 | 0.84 |

From patent publication US20060257938A1, “Method of screening for drugs that block ligand binding to a lipid binding protein” (priority 2005, published 2006)
